T1: PEP_2875803
T1 sequence (peptide): HAGTYGLGDAADQGG

T2: PEP_2875805
T2 sequence (peptide): AGTYGLGDRAAQGGY

T3: PEP_2875807
T3 sequence (peptide): GTYGLGDRKAAGGYT

T4: PEP_2875801
T4 sequence (peptide): DHAGTYGLGAAKDQG

T5: PEP_2875829
T5 sequence (peptide): GGYTMHQDQAADTDA

T6: PEP_2875813
T6 sequence (peptide): GLGDRKDQGAATMHQ

T7: PEP_2875815
T7 sequence (peptide): LGDRKDQGGAAMHQD

T8: PEP_2875828
T8 sequence (peptide): GGYTMHQDQEGDTDA

T9: PEP_2875802
T9 sequence (peptide): HAGTYGLGDRKDQGG

T10: PEP_2875800
T10 sequence (peptide): DHAGTYGLGDRKDQG

T11: PEP_2875830
T11 sequence (peptide): GYTMHQDQEGDTDAG


Assays:
PEP_2875803 = molecular target: T1, PEP_2875803; assay: peptide array of 15-mers of human tau probed with the antibody; label LIN.AA (double alanine)
PEP_2875805 = molecular target: T2, PEP_2875805; assay: as above
PEP_2875807 = molecular target: T3, PEP_2875807; assay: as above
PEP_2875801 = molecular target: T4, PEP_2875801; assay: as above
PEP_2875829 = molecular target: T5, PEP_2875829; assay: as above
PEP_2875813 = molecular target: T6, PEP_2875813; assay: as above
PEP_2875815 = molecular target: T7, PEP_2875815; assay: as above
PEP_2875828 = molecular target: T8, PEP_2875828; assay: peptide array of 15-mers of human tau probed with the antibody; label LIN
PEP_2875802 = molecular target: T9, PEP_2875802; assay: as above
PEP_2875800 = molecular target: T10, PEP_2875800; assay: as above
PEP_2875830 = molecular target: T11, PEP_2875830; assay: as above

Row | Binding Signal (PEP_2875803) | Binding Signal (PEP_2875805) | Binding Signal (PEP_2875807) | Binding Signal (PEP_2875801) | Binding Signal (PEP_2875829) | Binding Signal (PEP_2875813) | Binding Signal (PEP_2875815) | Binding Signal (PEP_2875828) | Binding Signal (PEP_2875802) | Binding Signal (PEP_2875800) | Binding Signal (PEP_2875830) | Binder
1 | 51 | 58 | 110 | 52 | 106 | 80 | 69 | 109 | 63 | 61 | 77 | murine anti-tau antibody HJ8.5 (antibody, V domains shown) VH: EVKVEESGGGLVQPGGSMKLSCVVSGFTFSNYWVNWVRQSPEKGLEWVAQIRLKSDNYATHYEESVKGRFTISRDDSKSSVYLQMNNLRAEDSGIYYCTNWEDYWGQGTTLTVSS VL: DIVLTQSPASLAVSLGQRATISCRASQSVSTSRYSYIHWYQQKPGQPPKLLIKYASNLESGVPARFSGSGSGTDFTLNIHPLEEEDAATYYCHHSWEIPLTFGAGTKLELK
2 | 65 | 76 | 114 | 90 | 118 | 65 | 99 | 110 | 65 | 78 | 97 | VH1/VK2 humanized anti-tau antibody (C2N-8E12) (antibody, human IgG4 S228P, kappa, V domains shown) VH: EVKVVESGGGLVQPGGSMKLSCVVSGFTFSNYWVNWVRQAPGKGLEWVAQIRLKSDNYATHYEESVKGRFTISRDDSKSSVYLQMNNLRAEDSGIYYCTNWEDYWGQGTTVTVSS VL: DIVLTQSPDSLAVSLGERATISCRASQSVSTSRYSYIHWYQQKPGQPPKLLIKYASNLESGVPSRFSGSGSGTDFTLNIHPLEPEDFATYYCHHSWEIPLTFGQGTKLEIKR
